Data on 30 sequences can be found in the nanobody polyreactivity screen of Harvey et al. (2022).

A short description of the series: yeast display, Sf9 membrane polyspecificity reagent, FACS + sequencing; frameworks hold sequencing errors. The gist of the method: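 Synthetic nanobody libraries on Saccharomyces cerevisiae BJ5465 were galactose-induced for 36–48 hours, stained 1 hour at 4 °C with 10% biotinylated, detergent-solubilized Sf9 membrane reagent and enriched on streptavidin microbeads. FACS then separated cells into low and high (top ~1%) gates by anti-HA (expression) and streptavidin (reagent binding) fluorescence. Genes were colony-PCR amplified, MiSeq 2 × 250 sequenced and CDR-length filtered. A clone's polyreactivity label is that of its gate of origin.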
Turning to “QVQRVESGGGLVQAGGSLLLSCAASGRIFYRSAMGWYRQAPGKESELVASISWSGGSTYYADSVKGRFTISRDNAKNTVYLQMNSLKPEDTAVYYCAARSYRYSYRYRAFDYWGQGTQVTVSS”, the “polyreactivity (PSR sort gate)” value is “high polyreactivity”.

“QVQRVESGGGLVQAGGSLRISCAASGSITWYYSMGWYRQAPGKERELFAAISDSGGDKYYADSVKGRFTISRDNAKNTVYLQMNSLKPEDTAVYYCNARYSWYGTFGGDYWGQDTQVTVSS”: the “polyreactivity (PSR sort gate)” value is “low polyreactivity”.

Take “QVQRVESGGGLVQAGGSLRLSCAASASIFASYAMGWYRQAPGKERELVASISRGGGTTYADSVKGRFTISRDNAKNTVYLQMNSLKPDDTAVYYCAARKVIRYRPYGYWGQGTQVTVSS”: the “polyreactivity (PSR sort gate)” value is “high polyreactivity”.

“QVQRVESGGGLVQAGGSLRLSCAASASTIVIKAMGCYRQAPGKARELVADLDYRGGSTNYADSVKGRFTISRDNAKNTVYLQMNSLKPEDTAVYYFNKRYVIRRRGYDYWGQGTQVTVSS”: the “polyreactivity (PSR sort gate)” value is recorded as “low polyreactivity”.

As for “QVQRVESGGGLVQAGGSLRLSCAASGFTIGSYAMGWYRQAPGKERELVAAITRRGGSTYYADSEKGRYTISRDNAKNTVSLQMNSLKPEDTAVYYCGKRSRDYVSSFRTSHANDYWGQGTQVTVSS”, the “polyreactivity (PSR sort gate)” value was “high polyreactivity”.

In the case of “QVQRVESGGGLVQAGGSLRLSCAASGFTLLPNAMGWYRQAPGKETELVAAITASGGRTYYADSVKGRFTISRDNAKNTVYLQMNSLKPEDTAVYSCNADWQDDLAGYDVDYWGQGTQVTGSS”, the “polyreactivity (PSR sort gate)” value was “low polyreactivity”.

Take “QVQRVESGGGLVQAGGSLRLSCAASGFTSLIYAMGWYRQAPGKESELVATITWGGGSTYADSVKGRFTISRDNAKNTVYLQMNSLKPEDTAVFYCIADIYDSWDYATVYSDRYDYWGQGTQVTVSS”: the “polyreactivity (PSR sort gate)” value was “low polyreactivity”.

“QVQRVESGGGLVQAGGSLRLSCAASGGTFAFNTMGWYRQAPGIERELVADISSGGSTNYADSVKGRFTISRDNAKNTVYLQMNRLKPVDSAVYYGNGGWDILYLQGDLDYWGQGTQVTVSS”: the “polyreactivity (PSR sort gate)” value is recorded as “low polyreactivity”.

Consider “QVQRVESGGGLVQAGGSLRLSCAASGITFKSYTMGWYRPAPGKERELVAANTASGGTTRYADSVKGRFTISRDNAKKTVYLQMNSLKPEDTAVYYCNALPFRYGKRRGYWGQGTQVTVSS”, for which the “polyreactivity (PSR sort gate)” value is “low polyreactivity”.

For the sequence “QVQRVESGGGLVQAGGSLRLSCAASGITFYPYTMGWYRQAPGKQRELVAAISSSGGSTNYADSVKGRFTISRDNAKNSDYLQMISLKPDDSAVYYCAKRYAGNASSDGDSWGQGTQVTVSS”, the “polyreactivity (PSR sort gate)” value is recorded as “low polyreactivity”.

As for “QVQRVESGGGLVQAGGSLRLSCAASGLTFSYNAMGWYRQAPGKERELVAAITVSGGRTYYADSVKGRFTISRDNAKNTVYLQMNSLKPEDTAVYYCNADYDEGYYGYLRYDYDYWGQGTQVTVSS”, the “polyreactivity (PSR sort gate)” value is listed as “high polyreactivity”.

For “QVQRVESGGGLVQAGGSLRLSCAASGNNVMGWYRQAPGKERELVAAISWSGTSTYADSVKGRFTISRDNAKNTVYIQMNSLKPEDTAVYYCAAEQQGRKYRASRRYDYWGQGTQVTVSS”, the “polyreactivity (PSR sort gate)” value is given as “low polyreactivity”.

Regarding “QVQRVESGGGLVQAGGSLRLSCAASGRIFALYARGWYRQAPGKEREWVAAISWSGGSTFYADSVKGRFTSSRDTAKNTVYLQMTSLKPEEPAVYYCNKDHLVYPSEFYYWGQGTQVTVSS”, the “polyreactivity (PSR sort gate)” value is “low polyreactivity”.

On to “QVQRVESGGGLVQAGGSLRLSCAASGRIFEYYAMGWSRQAPGKERELVAAINTGGNTYYADSVKGRFTISRDNAKNTVYLQMNSLKPEDTAVYYCATYPIWYGGYLSGTDYDYWGQGTQVTVSS”, for which the “polyreactivity (PSR sort gate)” value is on record as “low polyreactivity”.

In the case of “QVQRVESGGGLVQAGGSLRLSCAASGRIFGGYAMGWYRQAPGKERELVAGITIGGRTNYADSVKGRFTISRDNAKNTVYLQMNSLKPEDTAVYYCNTDLTGLDAEYDYWGQGTQLTVSS”, the “polyreactivity (PSR sort gate)” value is “low polyreactivity”.

Consider “QVQRVESGGGLVQAGGSLRLSCAASGRIFGYNAMGWSRPAPGKERELVASISRDGDRTYYADSVKGRVTISRDNAKNTVYLQMNSLKPEDTAVDYCATRQYRYGYLYDYWAQGTQVTVSS”, for which the “polyreactivity (PSR sort gate)” value is “high polyreactivity”.

Turning to “QVQRVESGGGLVQAGGSLRLSCAASGRIFPSNAMGWYRQAPGKERELVAGINTRSGRTYYADSVKGRFTNSRDNAKKTDYLQLNSLKPEDTAVYYCAAARAWPLNYWYVPYDYWGQGTQVTVSS”, the “polyreactivity (PSR sort gate)” value is reported as “high polyreactivity”.

In the case of “QVQRVESGGGLVQAGGSLRLSCAASGRNFTRYAMGWYRQAPGKERELVASISRRGGSTYYADSVKGRFTISRDNAKNTVYLQMNSLKPEDTAVYYCNALVIARNIEMDYWGQGTQVTVSS”, the “polyreactivity (PSR sort gate)” value is listed as “high polyreactivity”.

With “QVQRVESGGGLVQAGGSLRLSCAASGRTFAPYAMGWSRQAPGKARELVAGITYGGSRTYYADSVKGRFTISRDNAKNTVYLQMNSLKPEDPAVYYCNARSYPYQIRYVTYGAGYYYWGQGTQVTVSS”, the “polyreactivity (PSR sort gate)” value is given as “high polyreactivity”.

Take “QVQRVESGGGLVQAGGSLRLSCAASGRTFAYYVMGWYRQAPGKERELVAAISWSAGSTYYADSVKGRFTISRDNAKNTVYLQMNSLKPEDTAVYYCAADYRFRYEYWGQGTQVTVSS”: the “polyreactivity (PSR sort gate)” value is reported as “low polyreactivity”.

Regarding “QVQRVESGGGLVQAGGSLRLSCAASGRTFDSYAMGWYRPAPGKERELVAVITRGVRTYYADSVKGRFTISRDNAKNTVYLQMNSLKPEDTAVYYCAKERYNANYDTSLYDYWGQGTQVTVSS”, the “polyreactivity (PSR sort gate)” value is listed as “low polyreactivity”.

Consider “QVQRVESGGGLVQAGGSLRLSCAASGRTFWTNAMGWYRQAPGTERELVAAISGSGGSTYFADSVKGRFTISRDNAKNTVYLQMNSLKPEDTAVYYCAAYSRFRYDYWGQGTQVTVSS”, for which the “polyreactivity (PSR sort gate)” value was “high polyreactivity”.

In the case of “QVQRVESGGGLVQAGGSLRLSCAASGRTSYYNTMGWYRQAPGKEMELVAAITGRGDSTYYADSVKGRFTISRDNAKNTVYLQMNSLKPEDTAVYYCADDELHLLYRVSKFVDYNHWGQGTQVTVSS”, the “polyreactivity (PSR sort gate)” value was “low polyreactivity”.

Consider “QVQRVESGGGLVQAGGSLRLSCAASGSIFGPYAMVWYRQAPGKERELVAAITWSVGSTYYADSVKGRFTISRDNAKTTVYLQMNSLKPEDTAVYYCNAGVLGVYTSYNGDDYWGQGTQVTVSS”, for which the “polyreactivity (PSR sort gate)” value was “low polyreactivity”.

For the sequence “QVQRVESGGGLVQAGGSLRLSCAASGSIFNPYAMGWYRQARGKVRELGAAISKSGTSTSYADSRKGRFTISRDNAKNTVYLQMNSLKPEDTAVYYCAVQVRRRYNYWGQGTQETVSS”, the “polyreactivity (PSR sort gate)” value is “high polyreactivity”.

As to “QVQRVESGGGLVQAGGSLRLSCAASGSIFSIYAMGWNRQAPGKEMEFVAAIDSGTSTTYADSVKGRFTISRDNAKNTVYLQMNSLKPEDTAVYYCAAALYSDVAAVSTYGYYWGQGTQVTVSS”, the “polyreactivity (PSR sort gate)” value was “low polyreactivity”.

With “QVQRVESGGGLVQAGGSLRLSCAASGSIFTGNAMGWYRQAPGKEREFVAAIRRSGA”, the “polyreactivity (PSR sort gate)” value is reported as “low polyreactivity”.

Turning to “QVQRVESGGGLVQAGGSLRLSCAASGSIFTSNVRGWYRQAPGKERELDAAITITGTTNYADSVKGRFTISRDNAKNTVYFQMNRLKPEDTAVYYCAKDPVELSPADWRADYDYWGQGSQVTVSS”, the “polyreactivity (PSR sort gate)” value is recorded as “low polyreactivity”.

With “QVQRVESGGGLVQAGGSLRLSCAASGSTFIGYDMRWYRQAPGTERELVAAISYSDGTYYADSVKGRFTISRDNAKNTVYLQMNSLKPADTAVYYCAADSLYYRYDYWGQGPQVTVSS”, the “polyreactivity (PSR sort gate)” value is “low polyreactivity”.

As for “QVQRVESGGGLVQAGGSLRLSCAASGSTFRRYTMGWYRQAPGKERELVAAITYRGSSTYYADSVKGRFTISRDNAKNTVYLQMNSLKPEDTAVYYCAADARYTGYYYWGQGTQVTVSS”, the “polyreactivity (PSR sort gate)” value is given as “high polyreactivity”.
